Experimental data taken from publication PMC12780157 (Nature Communications, 2025).
Read-outs that look alike come from different tables or passages of the source.

Tests used:
[1] = biological target: β-tubulin (αβ-tubulin heterodimer); assay: X-ray co-crystal structure at […] Å; assay type: binding
[2] = biological target: recombinant Tubulin protein (cat# CSK-T240-B-T) (UniProt P02550); assay: ITC
[3] = biological target: recombinant Tubulin protein (cat# CSK-T240-B-T) (UniProt P02550); assay: ITC; remark: listed apart in the source
[4] = biological target: recombinant Tubulin protein (cat# CSK-T240-B-T) (UniProt P02550); assay: ITC; remark: listed apart in the source

A Kd [1] of 0.15 ± 0.01 µM was found for `COc1c(Cl)cc([C@@H]2c3cc4c(cc3C[C@H]3C(=O)NC(=O)N23)OCCO4)cc1Cl` [KY216, (6R,10aS)-6-(3,5-dichloro-4-methoxyphenyl)-2,3,10a,11-tetrahydro-[1,4]dioxino[2,3-g]imidazo[1,5-b]isoquinoline-8,10(6H,9H)-dione] in this work.

A Kd [2] of 1.53 µM, a Kd [3] of 0.52 µM and a Kd [4] of 1.49 µM were found for “recombinant VASH2 protein (cat# YHK84701) (from UniProt Q86V25 1-355) (enzyme)” in this work.
